± gives the uncertainty stated by the source.
Experiment: protein stability index of a GFP-peptide fusion (yeast GPS) (PSI 1-4); higher = more stable; sorted into four equal gates, so the index is relative within each strain
Summary of the method: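 Tiled yeast protein peptides of 17 residues were each joined downstream of GFP, on plasmids that also express Cherry. The pooled library was maintained in yeast, and mid-log cultures in leucine-free medium were sorted into four equal gates on the GFP/Cherry ratio. Plasmids from every gate were amplified by PCR and sequenced on Illumina, with barcodes linking reads to strains. The protein stability index of a peptide is its gate-number-weighted read frequency summed over the gates.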

Sequence	protein stability index (doa10∆)	protein stability index (pdr5∆)	protein stability index (san1∆)	protein stability index (ubr1∆)
LALPVFHIGYFKATIQI [RPO31]	1.51 ± 0.059	1.49 ± 0.043	1.87 ± 0.098	1.58 ± 0.044
AAIRQPTRYVLIRNVGT [POP1]	1.64 ± 0.073	2.07 ± 0.083	1.77 ± 0.11	1.31 ± 0.053
NENDKIYLLFQSSGKLK [YDL116W/NUP84]	2.43 ± 0.049	2.5 ± 0.049	2.44 ± 0.048	2.72 ± 0.034
QEWLANLKLISVSLVDE [SIR4]	2.77 ± 0.057	1.87 ± 0.047	2.46 ± 0.056	1.67 ± 0.039
AGVEDVYTQSNGKTRTL [RPS2]	2.76 ± 0.11	3.21 ± 0.084	3.28 ± 0.066	3.48 ± 0.057
KKKAFTKYSAKYAQDGA [RPL3]	3.03 ± 0.12	3.38 ± 0.09	3.1 ± 0.054	3.04 ± 0.032
QNCWSLINDSYINDVHL [SSN8]	3.35 ± 0.063	3.22 ± 0.069	3.34 ± 0.054	3.23 ± 0.055
DMDGVDFNQAFEGTDDN [BRN1]	2.97 ± 0.094	3.04 ± 0.091	3.35 ± 0.094	3.17 ± 0.072
GSYGSLLRFNGVERLIP [PRE4]	2 ± 0.064	2.44 ± 0.069	2.04 ± 0.12	2.22 ± 0.12
ASDMSDEDIITIFKYLT [CDC53]	2.84 ± 0.14	3.09 ± 0.13	3.23 ± 0.082	3.2 ± 0.061
MGRVIRNQRKGAGSIFT [RPL2A]	2.95 ± 0.2	3.28 ± 0.12	2.77 ± 0.25	2.75 ± 0.15
SLVFNRKLAVERAGHLL [PRE5]	2.08 ± 0.2	1.5 ± 0.18	1.43 ± 0.19	1.71 ± 0.21
FLVEYEGQENNYNSTSR [SIR4]	2.85 ± 0.093	2.76 ± 0.08	2.29 ± 0.1	3.24 ± 0.052
WTMRIEGRLLDNVQAND [SNF12]	2.48 ± 0.09	2.96 ± 0.096	2.7 ± 0.065	2.93 ± 0.047
RPYGVGLLIIGYDKSGA [PRE5]	1.68 ± 0.12	1.08 ± 0.14	–	1.06 ± 0.12
QKVFVRSRNGGATKIVR [DIS3]	2.33 ± 0.085	1.59 ± 0.11	2.88 ± 0.1	2.45 ± 0.21
EEERRKKRESGVEEEEE [SNF2]	3.49 ± 0.079	3.35 ± 0.1	3.38 ± 0.11	3.46 ± 0.047
PQVLINRDPVKHAEFDL [SIR2]	2.39 ± 0.14	3.04 ± 0.093	3.08 ± 0.12	2.79 ± 0.1
ENDAKKSKGDVDIKGED [NUT1]	3.18 ± 0.12	3.27 ± 0.2	2.95 ± 0.16	3.2 ± 0.12
LLIRSKTEDPKGGIIAS [YML031W/NDC1]	2.37 ± 0.14	2.36 ± 0.085	2.28 ± 0.085	2.66 ± 0.17
YGMSITETFEKPQRTNT [RPB2]	3.03 ± 0.14	3.35 ± 0.17	3.04 ± 0.12	3.12 ± 0.11
NKIMTNQINSFWSLHSS [NUT1]	1.91 ± 0.2	2.23 ± 0.15	2.06 ± 0.11	3.31 ± 0.1
GEENRVRFIGDSVAAIG [QCR2]	3.3 ± 0.15	2.76 ± 0.18	–	3 ± 0.24
RYLDNLKQEIDRGLSIK [SNU114]	3.02 ± 0.15	2.9 ± 0.17	3.4 ± 0.18	2.97 ± 0.082
VDNSPTTESNSRLKALN [YLR335W/NUP2]	3.18 ± 0.07	3.12 ± 0.057	3.11 ± 0.058	2.97 ± 0.059
KRVPNPNFLGNCNIKDF [SWP82]	2.05 ± 0.051	2.36 ± 0.04	2 ± 0.056	2.22 ± 0.032
STKSNKTRNPLTHSTPK [RPL8A]	2.44 ± 0.29	1.95 ± 0.14	–	1.88 ± 0.15

— the supplement of paper PMC9732359
